Laboratory results as given in the supplement of paper PMC11246515.
± gives the standard deviation of the averaged measurements.

Assay: total protein half-life in vivo (active degradation + dilution); higher = more stable protein
[1] = E. coli NCM3722 delta-clpP delta-lon delta-hslV, growth: N-lim chemostat, doubling time 6 h
[2] = E. coli NCM3722 delta-clpP, growth: N-lim chemostat, doubling time 6 h
[3] = E. coli NCM3722 delta-hslV, growth: N-lim chemostat, doubling time 6 h
[4] = E. coli NCM3722 delta-smpB, growth: N-lim chemostat, doubling time 6 h
[5] = wild type E. coli NCM3722, growth: C-lim chemostat, doubling time 6 h
[6] = wild type E. coli NCM3722, growth: C-lim chemostat, doubling time 12 h
[7] = wild type E. coli NCM3722, growth: N-lim chemostat, doubling time 6 h
[8] = wild type E. coli NCM3722, growth: N-lim chemostat, doubling time 12 h
[9] = wild type E. coli NCM3722, growth: P-lim chemostat, doubling time 6 h
[10] = E. coli NCM3722 delta-lon, growth: N-lim chemostat, doubling time 6 h
[11] = wild type E. coli NCM3722, growth: C-lim chemostat, doubling time 3 h
[12] = wild type E. coli NCM3722, growth: P-lim chemostat, doubling time 12 h

Sequence | total protein half-life in vivo [1] | total protein half-life in vivo [2] | total protein half-life in vivo [3] | total protein half-life in vivo [4] | total protein half-life in vivo [5] | total protein half-life in vivo [6] | total protein half-life in vivo [7] | total protein half-life in vivo [8] | total protein half-life in vivo [9] | total protein half-life in vivo [10] | total protein half-life in vivo [11] | total protein half-life in vivo [12]
MKLNIFTKSMIGMGLVCSALPALAMEAWNNQQGGNKYQVIFDGKIYENAWWVSSTNCPGKAKANDATNPWRLKRTATAAEISQFGNTLSCEKSGSSSSSNSNTPASNTPANGGSATPAQGTVPSNSSVVAWNKQQGGQTWYVVFNGAVYKNAWWVASSNCPGDAKSNDASNPWRYVRAATATEISETSNPQSCTSAPQPSPDVKPAPDVKPAPDVQPAPADKSNDNYAVVAWKGQEGSSTWYVIYNGGIYKNAWWVGAANCPGDAKENDASNPWRYVRAATATEISQYGNPGSCSVKPDNNGGAVTPVDPTPETPVTPTPDNSEPSTPADSVNDYSLQAWSGQEGSEIYHVIFNGNVYKNAWWVGSKDCPRGTSAENSNNPWRLERTATAAELSQYGNPTTCEIDNGGVIVADGFQASKAYSADSIVDYNDAHYKTSVDQDAWGFVPGGDNPWKKYEPAKAWSASTVYVKGDRVVVDGQAYEALFWTQSDNPALVANQNATGSNSRPWKPLGKAQSYSNEELNNAPQFNPETLYASDTLIRFNGVNYISQSKVQKVSPSDSNPWRVFVDWTGTKERVGTPKKAWPKHVYAPYVDFTLNTIPDLAALAKNHNVNHFTLAFVVSKDANTCLPTWGTAYGMQNYAQYSKIKALREAGGDVMLSIGGANNAPLAASCKNVDDLMQHYYDIVDNLNLKVLDFDIEGTWVADQASIERRNLAVKKVQDKWKSEGKDIAIWYTLPILPTGLTPEGMNVLSDAKAKGVELAGVNVMTMDYGNAICQSANTEGQNIHGKCATSAIANLHSQLKGLHPNKSDAEIDAMMGTTPMVGVNDVQGEVFYLSDARLVMQDAQKRNLGMVGIWSIARDLPGGTNLSPEFHGLTKEQAPKYAFSEIFAPFTKQ | 4.89 ± 0.41 h | 7.07 ± 0.34 h | 5.22 ± 1.2 h | 5.97 ± 0.68 h | 5.72 h | 10.9 ± 1.9 h | 5.87 ± 0.36 h | 12.9 ± 0.98 h | 6.31 ± 0.59 h |  |  | 
MKLPVREFDAVVIGAGGAGMRAALQISQSGQTCALLSKVFPTRSHTVSAQGGITVALGNTHEDNWEWHMYDTVKGSDYIGDQDAIEYMCKTGPEAILELEHMGLPFSRLDDGRIYQRPFGGQSKNFGGEQAARTAAAADRTGHALLHTLYQQNLKNHTTIFSEWYALDLVKNQDGAVVGCTALCIETGEVVYFKARATVLATGGAGRIYQSTTNAHINTGDGVGMAIRAGVPVQDMEMWQFHPTGIAGAGVLVTEGCRGEGGYLLNKHGERFMERYAPNAKDLAGRDVVARSIMIEIREGRGCDGPWGPHAKLKLDHLGKEVLESRLPGILELSRTFAHVDPVKEPIPVIPTCHYMMGGIPTKVTGQALTVNEKGEDVVVPGLFAVGEIACVSVHGANRLGGNSLLDLVVFGRAAGLHLQESIAEQGALRDASESDVEASLDRLNRWNNNRNGEDPVAIRKALQECMQHNFSVFREGDAMAKGLEQLKVIRERLKNARLDDTSSEFNTQRVECLELDNLMETAYATAVSANFRTESRGAHSRFDFPDRDDENWLCHSLYLPESESMTRRSVNMEPKLRPAFPPKIRTY [P0AC41] | 6.32 ± 0.098 h | 6.04 ± 0.75 h | 5.73 ± 0.33 h | 5.69 ± 0.26 h | 6.49 ± 0.39 h | 11.6 ± 1.4 h | 5.81 ± 0.35 h | 11 ± 0.49 h | 6.2 ± 0.12 h | 5.17 ± 0.66 h | 3.17 ± 0.15 h | 13.3 ± 0.3 h
MKLQKQLLEAVEHKQLRPLDVQFALTVAGDEHPAVTLAAALLSHDAGEGHVCLPLSRLENNEASHPLLATCVSEIGELQNWEECLLASQAVSRGDEPTPMILCGDRLYLNRMWCNERTVARFFNEVNHAIEVDEALLAQTLDKLFPVSDEINWQKVAAAVALTRRISVISGGPGTGKTTTVAKLLAALIQMADGERCRIRLAAPTGKAAARLTESLGKALRQLPLTDEQKKRIPEDASTLHRLLGAQPGSQRLRHHAGNPLHLDVLVVDEASMIDLPMMSRLIDALPDHARVIFLGDRDQLASVEAGAVLGDICAYANAGFTAERARQLSRLTGTHVPAGTGTEAASLRDSLCLLQKSYRFGSDSGIGQLAAAINRGDKTAVKTVFQQDFTDIEKRLLQSGEDYIAMLEEALAGYGRYLDLLQARAEPDLIIQAFNEYQLLCALREGPFGVAGLNERIEQFMQQKRKIHRHPHSRWYEGRPVMIARNDSALGLFNGDIGIALDRGQGTRVWFAMPDGNIKSVQPSRLPEHETTWAMTVHKSQGSEFDHAALILPSQRTPVVTRELVYTAVTRARRRLSLYADERILSAAIATRTERRSGLAALFSSRE | 4.81 ± 0.19 h | 4.01 ± 1.1 h | 2.9 ± 0.19 h | 2.739 ± 0.015 h | 4.39 ± 0.1 h | 6.98 ± 0.28 h | 2.97 ± 0.079 h | 4.37 ± 0.29 h | 4.36 ± 0.065 h | 3.33 ± 0.44 h | 2.89 ± 0.43 h | 7.54 ± 0.6 h
MKLQLVAVGTKMPDWVQTGFTEYLRRFPKDMPFELIEIPAGKRGKNADIKRILDKEGEQMLAAAGKNRIVTLDIPGKPWDTPQLAAELERWKLDGRDVSLLIGGPEGLSPACKAAAEQSWSLSALTLPHPLVRVLVAESLYRAWSITTNHPYHRE [P0A8I8] | 5.401 ± 0.053 h | 3.23 ± 0.13 h | 5.99 ± 1.1 h | 3.18 ± 0.43 h | 4.96 ± 0.5 h | 9.34 ± 2 h | 4.87 ± 0.21 h | 8.26 ± 0.7 h | 4.57 ± 0.29 h | 6.18 ± 1.4 h | 2.78 ± 0.13 h | 9.29 ± 0.3 h
MKLQQLRYIVEVVNHNLNVSSTAEGLYTSQPGISKQVRMLEDELGIQIFSRSGKHLTQVTPAGQEIIRIAREVLSKVDAIKSVAGEHTWPDKGSLYIATTHTQARYALPNVIKGFIERYPRVSLHMHQGSPTQIADAVSKGNADFAIATEALHLYEDLVMLPCYHWNRAIVVTPDHPLAGKKAITIEELAQYPLVTYTFGFTGRSELDTAFNRAGLTPRIVFTATDADVIKTYVRLGLGVGVIASMAVDPVADPDLVRVDAHDIFSHSTTKIGFRRSTFLRSYMYDFIQRFAPHLTRDVVDAAVALRSNEEIEVMFKDIKLPEK [P0A9F3] | 7.08 ± 0.39 h | 4.65 ± 0.091 h | 5.88 ± 0.65 h | 4.96 ± 0.18 h | 5.63 ± 0.12 h | 10 ± 1.2 h | 5.41 ± 0.36 h | 11 ± 0.51 h | 4.01 ± 0.32 h | 5.93 ± 0.08 h | 2.98 ± 0.23 h | 7.28 ± 0.33 h
MKLRSVTYALFIAGLAAFSTSSLAAQSLRFGYETSQTDSQHIAAKKFNDLLQERTKGELKLKLFPDSTLGNAQAMISGVRGGTIDMEMSGSNNFAGLSPVMNLLDVPFLFRDTAHAHKTLDGKVGDDLKASLEGKGLKVLAYWENGWRDVTNSRAPVKTPADLKGLKIRTNNSPMNIAAFKVFGANPIPMPFAEVYTGLETRTIDAQEHPINVVWSAKFFEVQKFLSLTHHAYSPLLVVINKAKFDGLSPEFQQALVSSAQEAGNYQRKLVAEDQQKIIDGMKEAGVEVITDLDRKAFSDALGNQVRDMFVKDVPQGADLLKAVDEVQ | 4.65 h |  |  |  | 6.69 ± 0.32 h | 9.23 ± 0.3 h |  |  |  |  | 3.23 ± 0.18 h | 
